Laboratory results from article PMC5583970.

Biological target: His-FOR20 (UniProt Q96NB1)
Assay: pull-down; purified His-FOR20 (1 μM) and tubulin dimers (1–8 μM) on ice for 1 h, Ni-NTP beads 30 min, supernatant and pellet on Coomassie gel, band intensities fitted to n identical independent sites; apparent Kd

Chain of UniProt Q96NB1 (Q96NB1 whole entry): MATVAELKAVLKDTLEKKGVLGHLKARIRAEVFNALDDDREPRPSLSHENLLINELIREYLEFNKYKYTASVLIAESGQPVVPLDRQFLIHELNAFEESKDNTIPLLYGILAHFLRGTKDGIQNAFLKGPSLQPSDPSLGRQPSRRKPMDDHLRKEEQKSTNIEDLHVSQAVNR

How did the Kd turn out when “free tubulin dimers (αβ-tubulin heterodimers) (from UniProt P02550 1-451; P02554 1-445) (complex)” was run?
The Kd was 3.5 µM.

And the stoichiometry N (tubulin dimers per FOR20)?
The stoichiometry N (tubulin dimers per FOR20) was 6.
